# Assay results: IntAct's records for PubMed 19797078
# B1: Tyrosine-protein phosphatase YVH1 (Saccharomyces cerevisiae), Q02256 (parent)
# chain: MAGNANSVDEEVTRILGGIYLGGIRPIIDHRPLGAEFNITHILSVIKFQVIPEYLIRKGYTLKNIPIDDDDVTDVLQYFDETNRFIDQCLFPNEVEYSPRLVDFKKKPQRGAVFAHCQAGLSRSVTFIVAYLMYRYGLSLSMAMHAVKRKKPSVEPNENFMEQLHLFEKMGGDFVDFDNPAYKQWKLKQSIKLDPSGSELVSNSGMFKDSESSQDLDKLTEAEKSKVTAVRCKKCRTKLALSTSFIAHDPPSKESSEGHFIKRAANSHRIIDIQESQANCSHFFIEPLKWMQPELQGKQELEGKFSCPGCSSKVGGYNWKGSRCSCGKWVIPAIHLQTSKVDQFPLQSTALPNMVNFESEKVNR
# partner: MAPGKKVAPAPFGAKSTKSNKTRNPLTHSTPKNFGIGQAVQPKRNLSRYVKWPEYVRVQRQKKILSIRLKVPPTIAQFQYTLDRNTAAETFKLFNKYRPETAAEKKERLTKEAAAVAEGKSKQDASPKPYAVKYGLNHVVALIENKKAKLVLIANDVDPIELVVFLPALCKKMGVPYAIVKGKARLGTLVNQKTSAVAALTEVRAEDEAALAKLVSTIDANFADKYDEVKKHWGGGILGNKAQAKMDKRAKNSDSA
# B2: Ribosome assembly factor MRT4 (Saccharomyces cerevisiae), P33201 (parent)
# chain: MPRSKRSKLVTLAQTDKKGRENKERIFDEVREALDTYRYVWVLHLDDVRTPVLQEIRTSWAGSKLIMGKRKVLQKALGEKREEEYKENLYQLSKLCSGVTGLLFTDEDVNTVKEYFKSYVRSDYSRPNTKAPLTFTIPEGIVYSRGGQIPAEEDVPMIHSLEPTMRNKFEIPTKIKAGKITIDSPYLVCTEGEKLDVRQALILKQFGIAASEFKVKVSAYYDNDSSTVESTNINME
# partner: B1 partner
# Variants of: B1
# Details: with rl8a_yeast RPL8A
row,Variant,effect of a mutation on the interaction
1,C117S,decreasing interaction

# Variants of: B2
# Details: with rl8a_yeast RPL8A
row,Variant,effect of a mutation on the interaction
1,G68D,decreasing interaction
